This data set can be described thus: soluble on expression in E. coli; label from the status in PepcDB or PDB records.
For “MELESKMGAFCGAAQSNYDDACVAFSAANKCAPIERETGVKKLADKLNPEQPHKLSVMDVKLITKASGDYTIVNSLLYSLDMVAVAVDKNGESETFVKRTLDNSIYAGELAQEALKHAGQKRMTGRSKNTIVKKAHTAIGNLVLLINDMEGRTPNASSFLSMGMDLLSSGVTVPGLA”, the “soluble on expression in E. coli” value was “not soluble”.
Regarding “MELFLTGVVLKPKGLKGELKVKPVTDFPESFLTRREYYIGKTPEDAVLRKVQSARFHQGFAWLVFEGAGSREGAEALVGCGLYVTRDALVAMPDDRAYIHELIGLDVFDETEGRVGKISDVLQMPAHDVYEVDTGDRKVLIPAVEDFITETDLEKGMVRLKRFKEFLLEHHHHHH”, the “soluble on expression in E. coli” value is “soluble”.
Turning to “MELIRWAIELGESVHGNTYEELMPLLDYYYDRDHLKAYCIANLLLNMDVLDEDRERIELRRCIAAYYAGLYKVARKHANELVLKHPDVDLYKNNLRLMEVYLNKEYDYCLFICPKTYGSFIDIARALKWRLEQEGNTVIISETILENVKNTVVFGAHTYAYNPNLLPKDAIVYNLEQLYEGSPYAHPLYLILLKDRVIWDYSKQNIEWLKQKGVGKEIKHVEMNYAPTLEIKKDAFEDEIIEDIDILFIGALNPRRQAIFDHLKAIAPNLNIVFKNNAWGIVRNELIARAKIILNIHFYLSGILETPRVSYAVANKKFIISENSNPEDEVEWPGIVFTPYEKIIENVMKYIELPEERKRLAEKAYNHFEANESLGTLSMRDETK”, the “soluble on expression in E. coli” value is recorded as “not soluble”.
As for “MELKNKKWTDEEFHKQREEVLQQWPTGKEVDLQEAVDYLKKIPAEKNFAEKLVLAKKKGITMAQPRAGVALLDEHIELLRYLQDEGGADFLPSTIDAYTRQNRYDECENGIKESEKAGRSLLNGFPGVNFGVKGCRKVLEAVNLPLQARHGTPDSRLLAEIIHAGGWTSNEGGGISYNVPYAKNVTIEKSLLDWQYCDRLVGFYEEQGVHINREPFGPLTGTLVPPSMSNAVGITEALLAAEQGVKNITVGYGECGNMIQDIAALRCLEEQTNEYLKAYGYNDVFVTTVFHQWMGGFPQDESKAFGVIVTATTIAALAGATKVIVKTPHEAIGIPTKEANAAGIKATKMALNMLEGQRMPMSKELETEMAVIKAETKCILDKMFELGKGDLAIGTVKAFETGVMDIPFGPSKYNAGKMMPVRDNLGCVRYLEFGNVPFTEEIKNYNRERLQERAKFEGRDVSFQMVIDDIFAVGKGRLIGRPE”, the entry is “soluble”; as for “MELLCHEVDPVRRAVRDRNLLRDDRVLQNLLTIEERYLPQCSYFKCVQKDIQPYMRRMVATWMLEVCEEQKCEEEVFPLAMNYLDRFLAGVPTPKSHLQLLGAVCMFLASKLKETSPLTAEKLCIYTDNSIKPQELLEWELVVLGKLKWNLAAVTPHDFIEHILRKLPQQREKLSLIRKHAQTFIALCATDFKFAMYPPSMIATGSVGAAICGLQQDEEVSSLTCDALTELLAKITNTDVDCLKACQEQIEAVLLNSLQQYRQDQRDGSKSEDELDQASTPTDVRDIDL”, “not soluble”.
The value for “MELLFLGTGAGIPAKARNVTSVALKLLEERRSVWLFDCGEATQHQMLHTTIKPRKIEKIFITHMAGDHVYGLPGLLGSRSFQGGEDELTVYGPKGIKAFIETSLAVTKTHLTYPLAIQEIEEGIVFEDDQFIVTAVSVIHGVEAFGYRVQEKDVPGSLKADVLKEMNIPPGPVYQKIKKGETVTLEDGRIINGNDFLEPPKKGRSVVFSGDTRVSDKLKELARDCDVMVHEATFAKEDRKLAYDYYHSTTEQAAVTAKEARAKQLILTHISARYQGDASLELQKEAVDVFPNSVAAYDFLEVNVPRGKLAAALEHHHHHH” was “soluble”; that for “MELLSIQNLTKVYKVPAGFLRKKNFFALKEVSLSIKQGDFLAIVGESGSGKSTLGKIILRLEKPTKGKVSFKGKDIFSMGKEYTRKVSAVFQDPRSSLNPRMKVEEILEEPLIVHRVKGRKERVLKVLQRVRLSEELLEKRPLQISGGQAQRVAIARALILEPELIVADEPTASLDVSVQEEILELFKELNSKGISFFFVTHDIRVVEKVANMVGVIYAGILMELGKKEEVLKNPLHPYTKFLLENVPVRHPKDRKPLKYLQEEEVSIPEEGCPFYPRCPEAMEECKKFIRRSEVNGRLLACNLY” was “soluble”; that for “MELMIGRVVKSHGIRGEVAIEVTTEEPEIRFAQGEVLNGRQGGKEHSLTIASVRPHQNRLLVKFKEIADRTAADSLRGTRFFAAPLDDDVDDGFYDHELEGLAVIHGEEKIGEVSGVIHGPAQSLLEVTLESGKEVLIPFVHDIVPEVDLDAGTCVITPPEGLLELLEHHHHHH” was “soluble”.
For “MELNDMAQFNEPISSQLLAIDENLTQLVTDIDILSSVNPLNYAQERERFISNKYSQEPNFQYQKAPLDTHQSKRRLYELPLEHIEDTQLQKLYEDVIQSYADKLDQVNTIGTQEFLYNSLRYYGEPSAKDIANAHFILHLPTEEESKPEHDSRSIAHFMQSFADKNGYECEIQILDGMLANALVSGSRVKINSAAHITTDELEALAHHEMGVHLLTTLNGRQQPLKVLSLGCPANTNTQEGLAILCEYLSGHFSIKRLRTLALRVLAVESMIKERDFRHTFMLLKEQYKASDVQAFTITSRVYRGGGLTKDYLYLRGFREVLNAYDKLGDDFSLLLCGKTELKYFDLIRSLVNKGIFTQPKFISPALSTPKQTNPIHRYIVSALKLEHHHHHH”, the “soluble on expression in E. coli” value is on record as “soluble”.
“MELQEVLRMNGGEGDTSYAKNSAYNQLVLAKVKPVLEQCVRELLRANLPNINKCIKVADLGCASGPNTLLTVRDIVQSIDKVGQEKKNELERPTIQIFLNDLFPNDFNSVFKLLPSFYRKLEKENGRKIGSCLIGAMPGSFYSRLFPEESMHFLHSCYCLQWLSQVPSGLVTELGIGTNKGSIYSSKASRLPVQKAYLDQFTKDFTTFLRIHSEELFSHGRMLLTCICKGVELDARNAIDLLEMAINDLVVEGHLEEEKLDSFNLPVYIPSAEEVKCIVEEEGSFEILYLETFKVLYDAGFSIDDEHIKAEYVASSVRAVYEPILASHFGEAIIPDIFHRFAKHAAKVLPLGKGFYNNLIISLAKKPEKSDM”: the “soluble on expression in E. coli” value was “soluble”.
Take “MELVYMDGKKEPYTTSEIIAECAEVQHHTITRLIRENKADFEELGILGFKIHKLDTRGQPKKSYILNEQQATFLITYLKNTETVRQFKLNLVKAFFEMREELSEIRLQRALEKPKRKTLHDSIETWPNAPKHAHSTMNNLLLKAVTDMNAKQLREERGGYNGIDSLTSEELEQYQAFEDMAIAMIELKMSYQEIKTMMFRSKKIS”: the “soluble on expression in E. coli” value is “not soluble”.
As for “MEMEHINENTIRVLIGNEDLADRGITFLDLLGNHKDVENFFYSILEEVDVEDEFQGSEAVTFQVLPKNDGLELFISKNVAMDDLSSLEGLSEVNADVSELIRKQIEADKAAADELDEMEATDETNRNVIFELDNFEAMIQLSKEVFMQSVLTNLYTYNDRYYLQVLFLTDELEKTNVDNEIAQILEFAHKTTVTQDTLVEYGTCIMERSALELTRYYFND”, the entry is “not soluble”.
Regarding “MEMKGINNIRIDDRLIHGQVATMWSNKLGVTRLMVVNDNVAKNDLQKQVLRMAVPAGISSSIITEETAISNIKNGKYEGQNVLMIVKSPVDLLPFIENDLEIKRINVGNMSNRNNTTVLRPNISVTDEERSAFEKLLSRDIEITTIMTPDDKKTFLKDIL”, the “soluble on expression in E. coli” value is listed as “not soluble”.
For “MEMRQPAVAGQFYPLRCENLENELKRCFEGLEIREQEVLGAVCPHAGYMYSGKVAAHVYATLPEADTYVIFGPNHTGYGSPVSVSRETWKTPLGNIDVDLELADGFLGSIVDADELGHKYEHSIEVQLPFLQYRFERDFKILPICMGMQDEETAVEVGNLLADLISESGKRAVIIASSDFTHYETAERAKEIDSEVIDSILNFDISGMYDRLYRRNASVCGYGPITAMLTASKKLGGSRATLLKYANSGDVSGDKDAVVGYAAIIVELEHHHHHH”, the “soluble on expression in E. coli” value is “soluble”.
For “MENIHDLWERALKSMEKKVSKPSFETWLKQTKANSIEDSTIIITAPNEFARDWLEKHYDELISETIDDLTGVRLYPKFVIPTSQLDEPFVEQELKKPMKQPPAQNGEMPNNMLNDKYTFDTFVIGSGNRFAHAASLAVAEAPAKAYNPLFIYGGVGLGKTHLMHAIGHYVMDHNPNAKVVYLSSEKFTNEFINAIRDNKAVNFRNKYRNVDVLLIDDIQFLAGKEQTQEEFFHTFNALHEDNKQIVISSDRPPKEIPTLEDRLRSRFEWGLITDITPPDLETRIAILRKKAKAENLDIPNEVMLYIANQIDTNIRELEGALIRVVAYSSLINQDMNADLAAEALKDIIPNAKPRVLTITDIQKTVGEYFHVKLEDFKAKKRTKSVAFPRQIAMYLSRELTDASLPKIGSEFGGRDHTTVIHAHEKISKLLSTDQELQDKIQDISDKLRSLEHHHHHH”, the “soluble on expression in E. coli” value is listed as “soluble”.
Turning to “MENKKSFFHLHLISDSTGETLMSAGRAVSAQFHTSMPVEHVYPMIRNQKQLAQVIDLIDKEPGIVLYTIVDQQLAEFLDLRCHAIGVPCVNVLEPIIGIFQTYLGAPSRRRVGAQHALNADYFARIEALNFAMDHDDGQMPETYDDADVVIIGISRTSKTPTSIYLANRGIKTANIPVVPNVPLPESLYAATRPLIVGLVATSDRISQVRENRDLGTTGGFDGGRYTDRATIMEELKYARALCARNNWPLIDVTRRSIEETAAAILALRPRTRLEHHHHHH”, the “soluble on expression in E. coli” value is given as “soluble”.
Take “MENLKIRYIDTRKIGTVSGVKVPVKKGYKIVVEDEEKGEDIVEVLGYSREESKNGIQPRFVRVANKRDLEIFKKNMRESERAFEICKEKIKEHGLDMHLLKAYIPLNRKKVFFYYLAEERVDFRNLVRDLAKIFKRRIEMRQIGVRDAVQMKGWIGRCMRETCCSQFMENFQSISLRDITEQNLPLSPSKFTGPCGRLVCCMAFERENYLLKILFPEPGTKLCYNKQEVTLLEVDPLRETVVLQYDELGKKVELGVRDMLPKGYEKALEHCRSCQFCCRRVYEEATEHEIVKSSAELEHHHHHH”: the “soluble on expression in E. coli” value is reported as “not soluble”.
For “MENRESAQRPHERLDAWRDSMELVEMIYRLTEVFPDQERYGLTAQLRRAAVSIPSNIAEGAARRSTPDYSRFLSIARGSLSELDTQVQIAARLGYSRSEDDQSVRRQVDLVFAKLTALMNALRRRGAA”, the “soluble on expression in E. coli” value is on record as “soluble”.
Regarding “MEQEFFFPPPKKSDGPVVACVVEKKGDGTRTSMRQNEIYAYSAQIRTGDGCMVMPKIHWNSFEPSDWVSCTLEYVNKANQIKEKEMLEISKVPAENFDRFGMPPTRFENGIVQIKTLFVACPEFIKNRETRNAYGSYKKLFILNIGLGFVSTRRTADGNLAEKVKNGDVYTGIFEFRAKDNGAINFNHRGRVRDETNHVIERDAMWELTKTSSVAATDVQKKQMKEAIEQLRKDAEQFEREFKDSQSRPVAPMLPPNEISENRKEINLGLALPSRHSQPSIRTVDVVTTTPAQMMPTASSFRIPFAQVSKAPVVAPSSQLQQQQQQPCSSNQTARIGNFLERDQVRGNLLGVPLSSSTPRGSPELLRRREVTADDGNITSNTAVMLRDNNANPMNRRRPS”, the “soluble on expression in E. coli” value is recorded as “not soluble”.
As for “MEQKYEEDIQKLQQEIEMLEAEQEETLRSIFVQHGDRLQQGVKSACEERGGGGAQQHTLSKLITEVRELEKDLRRQTEINGITLNECFVKTLHKSERKLIQQLRLAGHCGLLLFQVEFAVTEIQEDNVLHRRVTELNIVVDGVEFKDFSAFVSRVEDTKDLLLFFRTLRTFSERCEDRRQTFQHFQEKYPDVVNLPEGCRSEIMIIRSPQLPGISMTLFWKIHVSKEGVVKPLLDLLLKMPDQALELDTKKVMEKASDYFQSLLQLLGVEASIEGLIRTVCS”, the entry is “not soluble”; as for “MEQPYVYAYPQGSGPSGAPTPQAGGVVVDPKYCAPYPIDMAIVRKMMSLTDGNFVITDVNGNLLFKVKEPVFGLHDKRVLLDGSGTPVVTLREKMVSMHDRWQVFRGGSTDQRDLLYTVKRSSMLQLKTKLDVFLGHNKDEKRCDFRVKGSWLERSCVVYAGESDAIVAQMHRKHTVQSVFLGKDNFSVTVYPNVDYAFIASLVVILDDVNREDRAA”, “soluble”.

The values are drawn from the DeepSol protein solubility set.
